# B1: EMI domain: cysteine-rich domain of emilin-1, residues 55-131, SEQ ID NO 2; in some experiments Flag-tagged and GPI-anchored (protein)
# chain: RHRNWCAYVVTRTVSCVLEDGVETYVKYQPCAWGQPQCPQSIMYRRFLRPRYRVAYKTVTDMEWRCCQGYGGDDCAE
# modifications: sometimes Flag tag and GPI anchor; homo sapiens
# notes: in some experiments Flag-tagged and GPI-anchored
# Assays:
# [1] = molecular target: T1, TGFBRII (type II TGF-β receptor) (Homo sapiens, UniProt P37173); test: 125I TGF-β1 / TGFBRII cross-linking (DSS) and anti-HA immunoprecipitation in transfected HEK293T cells; format: binding; settings: HEK293T transfected with TGFBRII-HA and Flag-EMI-domain-GPI; iodinated TGF-β1; FIG. 2A
# T1 construct: expressed in transfected cells; host or cells: HEK293T
# Description: Experiments were performed according to standard methods (Massague, 1987). Briefly, a solution of iodinated TGF-β1 (Amersham) was applied to HEK293T cells grown in 24 well plates and transfected with a plasmid carrying the sequence of TGFBRII (type II TGF-β receptor) fused to the HA epitope. After appropriate incubation and washing, the cell layer was exposed to a solution of DSS (disuccinimidyl suberate), a compound that favors formation of covalent cross-links between interacting molecules. The cell layer was extracted with immunoprecipitation buffer (RIPA-buffer) and subjected to the immunoprecipitation procedure with anti-HA antibody. The immunoprecipitate was solubilized with FSB (final sample buffer), separated by SDS-PAGE and radioactive complexes were detected by autoradiography. Molar excess of unlabeled TGF-β was used in parallel experiments. In other experiments, cells were simultaneously transfected with TGFBRII and with expression vectors driving expression of the emilin-1 EMI domain bound to GPI (glycosylphosphatidylinositol), a moiety which anchors the EMI domain to the cell membrane, that was tagged with the Flag epitope (Flag-EMI-domain-GPI).
# Transfected cells, usually HEK293T, were incubated in Optimem (Invitrogen) for 24 hours prior to collection. […]
# TGF-β3 = test: Experiments in Xenopus on interaction of the EMI domain with TGF-β3
# T1 sequence (P37173 23-567): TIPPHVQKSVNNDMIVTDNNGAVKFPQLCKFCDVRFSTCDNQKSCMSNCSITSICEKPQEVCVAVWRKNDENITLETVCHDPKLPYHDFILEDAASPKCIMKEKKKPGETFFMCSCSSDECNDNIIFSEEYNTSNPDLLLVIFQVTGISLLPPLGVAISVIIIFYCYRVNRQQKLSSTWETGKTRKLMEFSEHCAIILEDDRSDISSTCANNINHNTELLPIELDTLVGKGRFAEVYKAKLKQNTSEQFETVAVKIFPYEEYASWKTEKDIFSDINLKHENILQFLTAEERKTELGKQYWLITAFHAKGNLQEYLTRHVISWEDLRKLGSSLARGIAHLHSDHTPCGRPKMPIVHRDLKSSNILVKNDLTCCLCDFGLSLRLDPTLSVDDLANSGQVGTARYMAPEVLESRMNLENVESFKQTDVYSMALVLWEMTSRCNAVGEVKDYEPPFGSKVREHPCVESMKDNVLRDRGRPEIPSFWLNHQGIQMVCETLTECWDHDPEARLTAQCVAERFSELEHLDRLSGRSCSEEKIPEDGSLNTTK
molecule,measurement,setting,value
B1,Competition with TGF-β for binding to TGFBRII (TGFBRII/TGF-β complex band),[1],does non compete with TGF-β for binding to TGFBRII
same,Interaction with TGF-β3,TGF-β3,interaction
